# Assays:
# [1] = molecular target: BxpB (recombinant, 167 residues, His6 tag removed with Factor Xa) (Bacillus anthracis (Sterne strain)) (UniProt S5W424); assay: SEC-MALS
# [2] = molecular target: BxpB (recombinant, 167 residues, His6 tag removed with Factor Xa) (Bacillus anthracis (Sterne strain)) (UniProt S5W424); assay: crystal structure
substance,measurement,setting,value
"BxpB (recombinant, 167 residues, His6 tag removed with Factor Xa) (from UniProt S5W424 1-167) (natural protein)",stoichiometry N,[1],3
same,stoichiometry N,[2],3

# Reference: publication PMC10470788
